Results published in the nanobody polyreactivity screen of Harvey et al. (2022).

Experiment: yeast display, Sf9 membrane polyspecificity reagent, FACS + sequencing; frameworks hold sequencing errors
In short: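 After 36–48 hours of galactose induction, yeast (Saccharomyces cerevisiae BJ5465) displaying a synthetic nanobody library were stained at 4 °C for 1 hour with 10% biotinylated, detergent-solubilized Sf9 membrane reagent. Streptavidin microbeads enriched the stained cells before FACS sorting into low and high (top ~1%) gates on anti-HA and streptavidin fluorescence. Each clone's polyreactivity label reflects its gate of origin.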

Sequence | polyreactivity (PSR sort gate)
QVQLVESGGGLVQAGGSLRLTCAASGRTFRSYAMGWYRQAPGKERELVAAISDGGSTNYADSVKGRFTISRDNAKNTVYLQMNSLKPEDTAVYYCAAEIFFAVFRFYYWGQGTQVTVSS | low polyreactivity
QVQLVESGGGLVQAGGSLRLSCAASGSSFGSNAMGWSRPAPGKERELVAAITGGDVSTYYADSVKGRFTISRDNAKNTVYLQMNSLKPEDTAVYYCNAEYARPAMDYWGQGTQVTVSS | low polyreactivity
QVQLVESGGGVVQAGGSLRLSCAASGSTLSYYAMGLYIQAPGTERELVAAITSGVSTNYADSVKGRFTISRDNAKNTVYFQMNSLKPEDTAVYYCAKAYGGYHDDYDYWGQVTQVTVSS | low polyreactivity
QVQLVESGVGLVQAGGSLRLSCAASGLIFASNSMGSYRQAPGKEREFVAAITSSGGSTYYADSVKGRFPISRDNAKNTVYLQMNSLKPEDTAVYYCAADLYGAWWYTYGRYYYWGQGTQVTVSS | low polyreactivity
QVHLVESGGGLVQAGGSLRLSCAASGITFYRYAMGWYRLAPGTERELVAAISSSGGSTYYADSVKGRFTISRDNAKNTVYLQMNSLKPEDTAVYYCAAQYNVPRDKYYFWGQGTQVTVSS | high polyreactivity
QVQLVESGGGLVQAGGSLRISCAASGSTFAGNAMGWYRQAPGKERELVAAIDSSTGSTYYADSVKGRFTISRDNAKNTVYLQMNSLKPEDTAVYYCNKTSFLVKLDYWGQGTQVTVSS | low polyreactivity
QVHLVESGGGLVQAGGSLRLSCAASGFTFYSYAMGWYRPPPGKEREFVAAITIGGGSTNYADSVKGRFTISRDIAKNTVYLQMNSLKPEDTAVYYCNVDYTLHFGYWGQGTQVTVSS | low polyreactivity
QVQLVESGGGLVQAGGSLRLSCAASGRIFRANAMGWYRQAPGKEGELVAAISRSAGSTYYADSVKGRFTISRDKAKNTVYLQMNSLKPEDTAVYYCAAVVRNPGTYDYWGQGTQVTVSS | high polyreactivity
QVQLVESGGGLVQAGGSLRLSCAASGFTFRTYAMGWYRQAPGKERELVADISGSGGSTYYADSVKGRFTISRDNAKNTVYLQMISLKPEDTAVYYCAATIYNWGYEREYWGQGTQVTVSS | high polyreactivity
QDQLVESGGGLVQAGGSLRLSCHSSGFIFTDYAMGWYRQAPGKERELVARITSGGASTYYADSVKGRFTISRDIAKNTVYLQMNSLKPEDTAVYYCAAQARCWGYVYWGQGTQVTVSS | low polyreactivity
QVQLVESGGGIVQAGGSLRLSWAASGRIFYAYAMRWSRQAPGKERELVASLSGGGSTDYADSVKGRFTISRDNAKNTVVLQMNSLKPEDTAVYYCAAQYYLYRSRFDYWGQGTLVTVSS | high polyreactivity
QVQLVESGGGLVQAGGSLRLSCAASGNSFPYYDMGWYRQAPGKERELVAAITSSASGTYYADSVKGRFTISRDNAKNTVYLQMNSLKPEDNAVYYCAAGVFFFTFDYWGQGTQVTVSS | low polyreactivity
QVQLVESGGGLVQAGGSLRLSCAASGIIFSHYAMGWYRQAPGKERELVAAISSRGGSTYYADSVKGRFTISRDNAKNTVYLQMNSLKPEDTAVYYCNAKWTSHGTYAEDYWGQGTQVTVSS | high polyreactivity
QVQLVESGGGLVQAGGSLRLSCAASGSIFLFNAMGWYRQAPGKERELVAAINRDDSTYYADSVKGRFTISRDNAKNTVYLLMISLKPEDTAVYYCAAPVLHAYYGYGYWGQGTQVTVSS | low polyreactivity
QVQQVESGGGLVQAGGSLRLSCAATGIIFNDYHMGWYRQAPGKERELVAAINYSGGSTYYADSVKGRFTISRDNAKNTVYLQMNSLKPEDTAVYYCAADNAVWEYDYWGQGTQVTVSS | low polyreactivity
QVQLVESGGGLVQAGGSLRLSCAASGSTFFPYAMGWYRQAPGKVRELVAAIRWSGGRTYYADSVKGRFTISRDNAKNTVFLQMNSLNPEDTAVYYCAAYKYLDYDYGGQGTQVTVSS | high polyreactivity
QVQLVESGGGLVQAGGSLRLSCAASGRTFTRYARGWYRQAPGKERELVAVISWSVGSTYYADSVKGRFTISRDNAKNTVYLQMNSLKPEDTAVYYCNSDVLSWSQEYDYWGQGTQVTVSS | low polyreactivity
QVQLVESGGGLVQAGGSLRLSCAASGLIFKYNAMGWYRQAPGKERELVADINRSGGSTYYADSVKGRFTISRDNAKNTVYLQMNSLKPEDTAVYYCAAERVSLYWVIFGYWGQGTQVTVSS | low polyreactivity

Sequence | polyreactivity (PSR sort gate)
QVQLVESGGGLVQAGGSLRLSCAASGRIFKYYAMGWYRQAPGKERELVAAISQNGGRTYYADSVKGRFTISRDNAKNTVYLQMNSLKPEDTAVYYCAAGWRSYAGYYQGEFGYWGQGTQVTVSS | high polyreactivity
QVQHVESGGGLVQAGGSLRLSCAASGSISPQNVMGWYRQAPGKERELVAAITGGGYTNYADSVKGRFTISRDNANNTVYLQMNSLKPEDTAVYYCNADYFQDRLDYWGQGTQVTVSS | low polyreactivity
QVQIVESGGGLVQAGGSLRLSCAASGRIIRDYDMGWYRQAPGKERELVAAITFRSGSTYYADSEKGRFTISRDNAKNTVYLLMNSLKPEDTAVYYCADANSILLFDSWGQGTQVTLSS | low polyreactivity
QVQLVESGGGLVQAGGSLRLSCAASGSIFQYNAMGWYRQAPGKEREFVAAISSRGGITYYADSVKGRFTISRDNAKNTVYLQMNSLKPEDTAVYYCAAEAYYSEVRWYEYWGQGTQVTVSS | high polyreactivity
QVQLVESGGFLVQAAGSLRLSCDASGFTFSSYSMGWYRQAPGKERELVAAISTRGGSTYYADSVKGRFTISLDNAMNSVYLLLNSLKPEDTADYYCATGGRGGRRYDYWGQGTQVTVSS | low polyreactivity
QVQLVESGGGLVQAGGSLRLSCAATGLIIRYYAMGWYRQAPGKEREFVAAITWNGGSTYADSVKGRFTISRDNAKNTVYLQMNSLKPEDTAVYYSAADLSYWDDFDYWGQGTQVTVSS | low polyreactivity
QVQLVESGGGLVQAGGSLRLSCASSGITLYGYAMGWYRQAPGKEREFVAAISRSGDRTYYADSVKGRFTISRDNAMNTVYLQMNSLKPEDTAVYYCNAWRYDYWGQGTQVTVSS | high polyreactivity
QVQLVESGGGLVQAGGSHRLSCAASGSILWENAMGWYIQAPRKERELVATISVSGGGTYYADSVKGRFTISRDKAKNTDYLQMNSLKPEDTAVYYCNARYGYESQGWEDYWGQGTQVTVSS | low polyreactivity
QVQLVESGGGLVQEGGSLRLSCAASGSTFSIYAMGWYRQAPGKERELVAGISGSGGSTYYADSVKGRFTISRDNAKNTVYLQMNSLKPEDTAVYYCAKRVLWGLDYCGQGTQVTVSS | low polyreactivity
QVQLVESGGGLVQAGGRLRLSCAASGIIFGTYAMGWYRPAPGQERELVAAINTGGTTYYADSVKGRFTISRDNAKNTVYLQMNSLKPEDTAVYYCAAEFTRYRYYYHKRPMDYWGQGTQVTVSS | low polyreactivity
QVQLVESGGGLVQAGGSLRLSCAASGFTFYYYAMGWYRQAPGKERELVAVITSGGNTYYADSVKGRFTISRDNAKNNVYLQMNSLKPEDTAVYYCAKDVSDPFYDPFEYWGQGTQVTVSS | low polyreactivity
QVQLVESGGGLVQAGGSLRLSCAASGRILNINAMGWYRQAPGQERELVAAITWRGGRTFYADSVKGRFTISRDNAKNTVYLQMNSLKPEDTAVYYCAASSNTWYPTGYYWGQGTQVTVSS | high polyreactivity
QVQLVESGGGLVQAGGSLRLSCAASGRTFKPYAMGWYRQAPGKERELVAAISTRGGSTYADSVKGRFTISRDNAKNTVYLQMNSLKPEDTAVYSCAAVYYRASARKFGYWGQGTQVTVSS | low polyreactivity
QVQLVESGGGLVQAGCSLRLSCAASGFIILNYTMGLYRQAPGKERELVAAISNGSDRTYYADSVKGRFTISRDNAKNTVYLQMISLKTEDTAVYYCAKDRDFSSPPTESGFDYWGQGTQVNVSS | low polyreactivity
QVQLVESGGGLVQAGGSLRLSCAASGGIFRNYAMGWYRQAPGKERELVARISSAGSTNYADSVKGRFTNSRDNAKNTVYLLMNSLKPEDTAVYYCAKGWRSWAEEGHDYWGQGTQVTVSS | low polyreactivity
QVQLVESGGGLVQAGGSLRLSCAASGFIYRYNVMGWYRHAPGKEMEMVAAISTSGGRTYYADSVKGRFTISRDNAKNTVYLQMNSLKPEDSAVYYCNAVKSEVQKVGDGYYWGLGTQVTVSS | high polyreactivity
QDQLVESGGGLVHAGGSLRLSCAASVSTFTRYDMGRYRQAPGKERELVDAISWSGGRTHYADSVKGRFTISRENAKNTVYLQMNSLKPEDTAVYYCNTLYDYWYDYWGQGSQVTVSS | low polyreactivity
